Source: US12049482B2, “Molecular switch-mediated control of engineered cells” (THE GENERAL HOSPITAL CORPORATION, priority 2017, dated 2024)
“Also recorded” adds a separate entry of the source.

Tests used:
CRBN [1] = molecular target: T1, CRBN (Homo sapiens, UniProt Q96SW2); details: in vitro; cited from earlier work
CRBN [2] = molecular target: T1, CRBN; test: Pomalidomide-dependent degradation of IKZF3 degron with A153 substitutions; type: cell-based; parameters: endogenous in cells; details: wtCRBN-expressing cells, pomalidomide dose-response
Procedure: (§1) Transduced cells were incubated with a range of Pomalidomide concentrations or DMSO for 20 hours. Cells were analyzed by flow cytometry for eGFP and mCherry fluorescence. 1000 mCherry+ cells were analyzed per sample, and the geometric mean of the per-cell eGFP/mCherry ratio was calculated in Flowjo. In Pomalidomide dose titration studies, the EC50 was calculated by non-linear regression in Prism. Experiments were performed in triplicate. In some cases cell surface protein expression was assayed in parallel with the above reporter assay; cells were stained with anti-CD28-BV421 antibody (BD Biosciences 562613) at a 1:50 dilution in FACS buffer (PBS+2% FCS+2 mM EDTA) for 10 minutes on ice. Cells were washed with FACS buffer and analyzed by flow cytometry.

K562-CD19 cells = test: Jurkat degron-tagged CAR-T co-culture with K562-CD19 (Myc-tag, CD69, IL2); type: cell-based, human
Procedure: 100,000 CAR-T Jurkat cells were co-cultured with 20,000 K562 or K562-CD19 cells for 18 hours.
Jurkat T cells lentivirally transduced with the genetic components described herein were co-cultured for 24 hours with K562 cells (human blast crisis Chronic Myeloid Leukemia cell line) lentivirally transduced with an expression vector encoding CD19 (referred to as K562-CD19) (G&P Biosciences LTV-CD19) or isogenic K562 cells lacking the target antigen. Both K562-CD19 and K562 cell lines were engineered to express homogenous high level mCherry expression via transduction with the Jenner lentivirus, allowing discrimination of K562 and Jurkat cells by flow cytometry. Unless otherwise specified, 50,000 Jurkat cells were co-cultured with 10,000 K562 cells in 110 ul of RPMI supplemented with Pen/Strep and 10% fetal calf serum for 24 hours. The supernatant was then harvested for cytokine secretion assays and IL2 concentration in the supernatant was performed according to manufacturer specifications (BD Biosciences 555190). The cells were analyzed by flow cytometry. Expression of the early activation marker CD69 (BioLegend 310910), myc tagged cell surface proteins (Cell Signaling Technologies 2233S), and fluorescent protein markers were assessed.

CRL4^CRBN = molecular target: T2, CRL4^CRBN (Homo sapiens, UniProt Q96SW2); test: GFP/mCherry reporter assay for degradation of degron-eGFP fusion proteins in Jurkat T cells; type: cell-based
T2 construct: endogenous in cells; host or cells: Jurkat T cells (ligase endogenous; degron-eGFP reporters lentivirally transduced)
T2 sequence (Q16531 whole entry partner, one chain of several, the tested form may be a part): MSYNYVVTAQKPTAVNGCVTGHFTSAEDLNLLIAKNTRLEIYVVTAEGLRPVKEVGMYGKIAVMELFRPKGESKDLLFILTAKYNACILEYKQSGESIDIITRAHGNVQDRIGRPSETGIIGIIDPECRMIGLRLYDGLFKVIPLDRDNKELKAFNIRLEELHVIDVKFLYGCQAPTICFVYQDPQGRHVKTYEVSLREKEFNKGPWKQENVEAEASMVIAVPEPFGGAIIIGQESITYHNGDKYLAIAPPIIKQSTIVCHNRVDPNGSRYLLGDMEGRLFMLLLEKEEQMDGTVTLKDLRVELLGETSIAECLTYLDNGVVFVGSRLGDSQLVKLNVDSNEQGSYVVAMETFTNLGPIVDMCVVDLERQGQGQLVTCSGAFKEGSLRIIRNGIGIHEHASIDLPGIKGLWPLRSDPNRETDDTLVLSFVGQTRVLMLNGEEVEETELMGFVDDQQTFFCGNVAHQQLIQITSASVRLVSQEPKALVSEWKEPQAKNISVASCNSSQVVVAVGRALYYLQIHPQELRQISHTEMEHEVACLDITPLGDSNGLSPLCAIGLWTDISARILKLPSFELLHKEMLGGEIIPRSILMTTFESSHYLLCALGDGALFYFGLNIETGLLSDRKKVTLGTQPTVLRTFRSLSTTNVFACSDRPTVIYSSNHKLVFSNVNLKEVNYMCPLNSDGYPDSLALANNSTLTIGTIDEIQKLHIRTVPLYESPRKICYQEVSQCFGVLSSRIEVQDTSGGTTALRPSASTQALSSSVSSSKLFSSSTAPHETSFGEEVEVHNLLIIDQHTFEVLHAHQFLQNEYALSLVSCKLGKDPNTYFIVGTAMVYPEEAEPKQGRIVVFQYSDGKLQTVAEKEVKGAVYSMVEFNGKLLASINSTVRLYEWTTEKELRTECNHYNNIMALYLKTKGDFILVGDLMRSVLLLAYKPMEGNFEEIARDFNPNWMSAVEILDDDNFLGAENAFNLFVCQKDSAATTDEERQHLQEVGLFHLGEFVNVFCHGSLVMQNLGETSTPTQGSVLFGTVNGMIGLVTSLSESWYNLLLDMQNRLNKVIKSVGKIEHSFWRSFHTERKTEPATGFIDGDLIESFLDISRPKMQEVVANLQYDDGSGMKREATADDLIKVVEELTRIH
T2 sequence (Q13619 whole entry partner, one chain of several, the tested form may be a part): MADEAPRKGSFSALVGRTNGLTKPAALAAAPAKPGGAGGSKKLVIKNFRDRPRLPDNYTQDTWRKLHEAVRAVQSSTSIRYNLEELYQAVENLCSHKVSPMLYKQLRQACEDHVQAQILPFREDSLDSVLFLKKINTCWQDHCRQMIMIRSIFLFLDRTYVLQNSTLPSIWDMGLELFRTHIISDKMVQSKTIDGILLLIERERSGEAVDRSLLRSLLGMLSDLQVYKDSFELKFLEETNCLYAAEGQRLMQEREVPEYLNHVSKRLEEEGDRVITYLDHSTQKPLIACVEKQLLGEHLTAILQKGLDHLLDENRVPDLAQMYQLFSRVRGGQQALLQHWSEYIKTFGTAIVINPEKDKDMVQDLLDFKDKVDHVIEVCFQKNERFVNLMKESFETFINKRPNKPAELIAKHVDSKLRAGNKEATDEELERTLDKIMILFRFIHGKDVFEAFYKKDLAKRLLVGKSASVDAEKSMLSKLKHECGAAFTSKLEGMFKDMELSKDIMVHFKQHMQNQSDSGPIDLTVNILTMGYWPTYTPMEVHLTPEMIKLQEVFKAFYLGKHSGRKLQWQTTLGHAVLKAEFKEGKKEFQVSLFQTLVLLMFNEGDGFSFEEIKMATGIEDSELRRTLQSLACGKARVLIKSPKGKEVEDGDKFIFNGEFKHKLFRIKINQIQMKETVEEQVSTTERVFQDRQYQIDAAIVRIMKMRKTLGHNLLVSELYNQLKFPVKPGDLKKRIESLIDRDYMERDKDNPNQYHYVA
T2 sequence (P62877 whole entry partner, one chain of several, the tested form may be a part): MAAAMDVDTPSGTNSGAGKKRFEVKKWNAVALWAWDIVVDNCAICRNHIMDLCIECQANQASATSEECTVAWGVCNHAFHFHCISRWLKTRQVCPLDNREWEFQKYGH
T2 sequence (Q9UKT9 130-189 partner limits assumed, one chain of several): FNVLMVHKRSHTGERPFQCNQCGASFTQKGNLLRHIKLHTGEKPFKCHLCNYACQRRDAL
Procedure: First, the FMC63 anti-CD19 scFv was exchanged for the CD28 Ig-like V-type extracellular domain. […] Experiments were performed in triplicate.
as §1, with “Transduced cells were incubated with a range of Pomalidomide concentrations or DMSO for 20 hours.” left out
First, the FMC63 anti-CD19 scFv was exchanged for the CD28 Ig-like V-type extracellular domain.

IKZF3aa130-189 = test: BRET assay, dimerization of IKZF3aa130-189 with CRBN or minCRBN variants; type: cell-based, human; details: pomalidomide dose-response
Chain of IKZF3aa130-189 (Q9UKT9 130-189 limits assumed, one chain of several): as the sequence (Q9UKT9 130-189 partner limits assumed, one chain of several) above
Procedure: Specifically, CRBN deletion variants were engineered to retain binding to Pom/IKZF3 but not DDB1/CUL4. Four deletion variants were generated in CRBN that removed the DDB1-binding domain, as shown in the middle image (NTD is the N-terminal domain; LLP1 is Lon-like protease domain 1 (split into LLP1-N and LLP1-C regions); TBD is the Thalidomide binding domain). At middle, BRET assays were performed upon 293T cells harboring bialleleic CRISPR/Cas9 disruption of endogenous CRBN (293T-CRBNΔe5), to assess dimerization between IKZF3aa130-189 and CRBN or minCRBN variants (dose-response data shown are CRBN, minCRBN1, minCRBN2, minCRBN3 and minCRBN4). […] Pomalidomide-dependent dimerization was observed between IKZF3aa130-189-HaloTag and CRBN-Nanoluciferase (NLuc) or minCRBN2-4-NLuc. […] 1 day after transfection, cells were exposed to 1 μM pomalidomide for the number of hours indicated and GFP and mCherry fluorescence was measured by flow cytometry (eGFPmCherry levels were detected as 0.5 or less for the CRBN trace).
(§2) 293T cells were co-transfected with pFC14K and pFC32K plasmids expressing IKZF3-HaloTag and CRBN-Nanoluciferase fusion proteins and incubated overnight. Cells were then trypsinized and seeded into 96 well plates, at 40,000 cells per well. The BRET assay was performed per manufacturer's instructions (Promega™). In brief, cells were incubated for 2 hours with varying concentrations of Pomalidomide or DMSO, 10 μM MG132, and 100 nM HaloTag NanoBRET 618 Ligand. NanoBRET Nano-Glo substrate was added and donor (460 nm) and acceptor (618 nm) emission were measured within 10 minutes (EnVision, Perkin Elmer). Mean corrected milliBRET units (mBU) was calculated.
Tested forms of minimal CRBN included minCRBN1, minCRBN2, minCRBN3 and minCRBN4, each of which were aligned against the wild-type CRBN (FIG. 1; all tested minCRBNs lacked the DDB1-binding domain—minCRBN1 comprised amino acids 339-442 of CRBN (including the TBD); minCRBN2 comprised amino acids 317-442 of CRBN (including TBD and an N-terminal extended sequence relative to minCRBN1); minCRBN3 included all CRBN sequence other than amino acids 194-207 (deletion of the DDB1-binding domain); and minCRBN4 included all sequences other than amino acids 187-260 (deletion of the DDB1-binding domain)).

IKZF3 degron-GFP = test: eGFP/mCherry reporter, IKZF3 degron degradation with co-transfected CRBN or minCRBN1-4 in 293T-CRBNΔe5 cells; type: cell-based, human; details: 1 μM pomalidomide, time course in hours, 293T-CRBNΔe5 cells
Chain of IKZF3 degron-GFP (Q9UKT9 130-189 limits assumed, one chain of several): as the sequence (Q9UKT9 130-189 partner limits assumed, one chain of several) above
Procedure: Specifically, CRBN deletion variants were engineered to retain binding to Pom/IKZF3 but not DDB1/CUL4. Four deletion variants were generated in CRBN that removed the DDB1-binding domain, as shown in the middle image (NTD is the N-terminal domain; LLP1 is Lon-like protease domain 1 (split into LLP1-N and LLP1-C regions); TBD is the Thalidomide binding domain). At middle, BRET assays were performed upon 293T cells harboring bialleleic CRISPR/Cas9 disruption of endogenous CRBN (293T-CRBNΔe5), to assess dimerization between IKZF3aa130-189 and CRBN or minCRBN variants (dose-response data shown are CRBN, minCRBN1, minCRBN2, minCRBN3 and minCRBN4). […] 1 day after transfection, cells were exposed to 1 μM pomalidomide for the number of hours indicated and GFP and mCherry fluorescence was measured by flow cytometry (eGFPmCherry levels were detected as 0.5 or less for the CRBN trace).
Transduced cells were incubated with a range of Pomalidomide concentrations or DMSO for 20 hours. Cells were analyzed by flow cytometry for eGFP and mCherry fluorescence. 1000 mCherry+ cells were analyzed per sample, and the geometric mean of the per-cell eGFP/mCherry ratio was calculated in Flowjo. In Pomalidomide dose titration studies, the EC50 was calculated by non-linear regression in Prism. […] Cells were washed with FACS buffer and analyzed by flow cytometry.

IKZF3 A153M = test: BRET, IKZF3 A153 substitutions with CRBN, CRBN V388A or CRBN I371A; type: cell-based, human; details: 293T cells, 2 hours
Chain of IKZF3 A153M (Q9UKT9 130-189 A153M limits assumed): as the sequence (Q9UKT9 130-189 partner limits assumed, one chain of several) above, with A24M counted along it
Procedure: as §2

Molecule: Nc1cccc2c1C(=O)N(C1CCC(=O)NC1=O)C2=O (stereo not shown) [pomalidomide, Pomalidomide]
- binding to CRBN (CRBN [1]): binds to CRBN in vitro

Molecule: O=C1CCC(N2C(=O)c3ccccc3C2=O)C(=O)N1 (stereo not shown) [thalidomide, Thalidomide]
- binding to CRBN (CRBN [1]): binds to CRBN in vitro

Molecule: A153D: IKZF3 degron polypeptide, amino acids 130-189 A153D, SEQ ID NO: 43
- pomalidomide-dependent degradation of substituted IKZF3 degron (CRBN [2]): most effective at disrupting pomalidomide-dependent IKZF3 degron degradation

Molecule: IKZF3 A153M: IKZF3 degron polypeptide, amino acids 130-189 A153M, SEQ ID NO: 36
- pomalidomide-dependent degradation of substituted IKZF3 degron (CRBN [2]): disrupted binding and degradation by CRBN

Molecule: d913: Hybrid degron, IKZF3 aa 130-145 + ZFP91 aa 400-410 + IKZF3 aa 157-189, SEQ ID NO: 95 (FNVLMVHKRSHTGERPLQCEICGFTCRQKGNLLRHIKLHTGEKPFKCHLCNYACQRRDAL)
- drug control over CAR protein expression, activation and IL2 secretion (K562-CD19 cells; Jurkat CAR-T with K562 or K562-CD19, 18 hours): more robust control over CAR protein expression, activation, and cytokine secretion than the endogenous IKZF3 degron
- cell surface CAR expression (anti-Myc tag) (K562-CD19 cells; Jurkat T cells, no drug (tonic)): lower tonic CAR cell surface protein abundance versus the control CAR

Molecule: degron: IKZF3 degron polypeptide, amino acids 130-189, SEQ ID NO: 5, as eGFP fusion
- degradation of degron-eGFP protein (CRL4^CRBN; by 1 hour after addition of 1 μM pomalidomide): ~90%
- EC50 (CRL4^CRBN; nM pomalidomide, Jurkat T cells): 0.4 nM

B1: CRBN: Native Homo sapiens CRBN polypeptide, SEQ ID NO: 6; positive control (protein, listed as Homo sapiens)
chain: MAGEGDQQDAAHNMGNHLPLLPAESEEEDEMEVEDQDSKEAKKPNIINFDTSLPTSHTYLGADMEEFHGRTLHDDDSCQVIPVLPQVMMILIPGQTLPLQLFHPQEVSMVRNLIQKDRTFAVLAYSNVQEREAQFGTTAEIYAYREEQDFGIEIVKVKAIGRQRFKVLELRTQSDGIQQAKVQILPECVLPSTMSAVQLESLNKCQIFPSKPVSREDQCSYKWWQKYQKRKFHCANLTSWPRWLYSLYDAETLMDRIKKQLREWDENLKDDSLPSNPIDFSYRVAACLPIDDVLRIQLLKIGSAIQRLRCELDIMNKCTSLCCKQCQETEITTKNEIFSLSLCGPMAAYVNPHGYVHETLTVYKACNLNLIGRPSTEHSWFPGYAWTVAQCKICASHIGWKFTATKKDMSPQKFWGLTRSALLPTIPDTEDEISPDKVILCL
- pomalidomide-dependent dimerization with IKZF3 degron (mBU) (IKZF3aa130-189): pomalidomide-dependent interactions
- eGFP/mCherry level of IKZF3 degron-GFP reporter (IKZF3 degron-GFP): ≤ 0.5
- eGFP/mCherry level of IKZF3 degron-GFP reporter (IKZF3 degron-GFP; listed as wild-type CRBN): successfully promoted degradation of the IKZF3 degron

B2: CRBN V388A: CRBN polypeptide with V388A substitution (protein, UniProt Q96SW2 1-442, looked up, variant V388A)
Protein cereblon: MAGEGDQQDAAHNMGNHLPLLPAESEEEDEMEVEDQDSKEAKKPNIINFDTSLPTSHTYLGADMEEFHGRTLHDDDSCQVIPVLPQVMMILIPGQTLPLQLFHPQEVSMVRNLIQKDRTFAVLAYSNVQEREAQFGTTAEIYAYREEQDFGIEIVKVKAIGRQRFKVLELRTQSDGIQQAKVQILPECVLPSTMSAVQLESLNKCQIFPSKPVSREDQCSYKWWQKYQKRKFHCANLTSWPRWLYSLYDAETLMDRIKKQLREWDENLKDDSLPSNPIDFSYRVAACLPIDDVLRIQLLKIGSAIQRLRCELDIMNKCTSLCCKQCQETEITTKNEIFSLSLCGPMAAYVNPHGYVHETLTVYKACNLNLIGRPSTEHSWFPGYAWTAAQCKICASHIGWKFTATKKDMSPQKFWGLTRSALLPTIPDTEDEISPDKVILCL
- pomalidomide-dependent binding with IKZF3 A153M (IKZF3 A153M; 10 μM MG132, 1 μM pomalidomide and dose-response): restored binding affinity with IKZF3 A153M; also recorded: greatest restoration of pomalidomide-dependent binding
- mBU fold change at 1 μM Pomalidomide/DMSO (IKZF3 A153M; 10 μM MG132, mutant versus wild type CRBN): increased the mBU fold change versus wild type CRBN

B3: minCRBN2: Minimal CRBN, amino acids 317-442 of CRBN, SEQ ID NO: 2 (protein)
chain: CTSLCCKQCQETEITTKNEIFSLSLCGPMAAYVNPHGYVHETLTVYKACNLNLIGRPSTEHSWFPGYAWTVAQCKICASHIGWKFTATKKDMSPQKFWGLTRSALLPTIPDTEDEISPDKVILCL
- pomalidomide-dependent dimerization with IKZF3 degron (mBU) (IKZF3aa130-189): pomalidomide-dependent interactions

B4: minCRBN1: Minimal CRBN, amino acids 339-442 of CRBN (including the TBD), SEQ ID NO: 1 (protein)
chain: SLSLCGPMAAYVNPHGYVHETLTVYKACNLNLIGRPSTEHSWFPGYAWTVAQCKICASHIGWKFTATKKDMSPQKFWGLTRSALLPTIPDTEDEISPDKVILCL
- pomalidomide-dependent dimerization with IKZF3 degron (mBU) (IKZF3aa130-189): dose-dependence was only not observed

B5: minCRBN4: All CRBN sequences other than amino acids 187-260 (deletion of the DDB1-binding domain), SEQ ID NO: 4 (protein)
chain: MAGEGDQQDAAHNMGNHLPLLPESEEEDEMEVEDQDSKEAKKPNIINFDTSLPTSHTYLGADMEEFHGRTLHDDDSCQVIPVLPQVMMILIPGQTLPLQLFHPQEVSMVRNLIQKDRTFAVLAYSNVQEREAQFGTTAEIYAYREEQDFGIEIVKVKAIGRQRFKVLELRTQSDGIQQAKVQILPLREWDENLKDDSLPSNPIDFSYRVAACLPIDDVLRIQLLKIGSAIQRLRCELDIMNKCTSLCCKQCQETEITTKNEIFSLSLCGPMAAYVNPHGYVHETLTVYKACNLNLIGRPSTEHSWFPGYAWTVAQCKICASHIGWKFTATKKDMSPQKFWGLTRSALLPTIPDTEDEISPDKVILCL
- pomalidomide-dependent dimerization with IKZF3 degron (mBU) (IKZF3aa130-189): pomalidomide-dependent interactions
